This note sets out measurements from the supplement of paper PMC11780869.

The data set deals with Bacillus subtilis. The experiment in a line: cleaved RNA product abundance (RNA/gDNA barcode ratio) relative to median wild-type variant (ratio to wild type); higher = more accumulation of the downstream cleavage product. As to the method: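 MPRA in B. subtilis. Mutagenized RNase Y cleavage-site regions (9% mutation rate) were inserted into a barcoded reporter mRNA (truncated aprE or tetM). Cells were grown in LB at 37°C to OD600 0.3. The cleaved RNA isoform was gel-purified and its barcodes counted; the RNA:gDNA barcode ratio was normalised to the median wild-type variant, and the median over barcodes is reported per variant. The printed sequence is the variable window only; the reporter flanks are not printed.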

Setting [1] is: experiment (reporter, strain, medium): exp 8a: truncated aprE reporter, strain BJT201 with 2% xylose (RNase J1 expressed), cleavage site: glnRA (positions -5 to +31 mutated).
Setting [2] is: experiment (reporter, strain, medium): exp 4a: truncated aprE reporter, strain BJT201 with 2% xylose (RNase J1 expressed), cleavage site: cggR-gapA (positions -7 to +36 mutated).
Setting [3] is: experiment (reporter, strain, medium): exp 2b: truncated aprE reporter, strain BJT200, cleavage site: cggR-gapA (positions -7 to +36 mutated).

On to “CGACATGTCCCGCTTCTTTCATTATTCCGTTATCAACTGTTTTGCTATATACATTTACCTTTTAAGAGGAGGAAT”, for which the “cleaved RNA product abundance” value under setting [1] was 0.265.
For the sequence “ACAGACGAAGGAGCCGCAAAGAATTTATTAAGGGATGAATAATCCCTCCATATAAATATCTCTCACTTATTTAAA”, the “cleaved RNA product abundance” value under setting [2] is 0.424.
With “ACAGACGAAGGAGCCGCAAAGAAGTTATTAAGGGAAGAATAATGCCTCAATATAAATATCTCTCACTTATTTAAA”, the “cleaved RNA product abundance” value was 0.0918 under setting [3] and 0.132 under setting [2].
Consider “CGACATGTCCCGCTTCTTTCATTATTCCAATAGCAACTGTTTTGCTATATACATTTACCTTTTAAGAGGAGGAAT”, for which, under setting [1], the “cleaved RNA product abundance” value is 0.925.
“ACAGACGAAGGAGCCGCAAAGAAGTTATTAAGGGATGAATTATCCCTCAACATAAATATCTCTCACTTATTTAAA”: the “cleaved RNA product abundance” value came to 0.179 under setting [3] and 0.284 under setting [2].
Consider “CGACATGTCCCGCTTCTTTCATTAATCCGTTATCAACTGTTTTGCTATATACATTCACCTTTTAAGAGGAGGAAT”, for which the “cleaved RNA product abundance” value under setting [1] is 0.214.
In the case of “CGACATGTCCCGCTTCTTTCATTAATCCGTTAGCAATTGTTTTGCTATATACATTGACTTTTTAAGAGGAGGAAT”, the “cleaved RNA product abundance” value under setting [1] is 1.33.
On to “CGACATGTCCCGCTTCTTTCATTAATCAGTTAGCAACTGTTTTCCTATATACATTTACCTTTTAAGAGGAGGAAT”, for which the “cleaved RNA product abundance” value under setting [1] was 0.433.
For “ACAGACGAAGGAGCCGCATAGAAGTTATTAAGGGATGAATAAGCCCTCAATATAAATATCTCTCACTTATTTAAA”, the “cleaved RNA product abundance” value under setting [2] is 0.32.
Take “ACAGACGAAGGAGCCGCAAAGAAGTTATTAAGGGATGAATAATCCCTCAATATAAATGTTTCTCACTTATTTAAA”: the “cleaved RNA product abundance” value under setting [2] came out at 0.369.
For the sequence “CGACATGTCCCGCTTCTTTCATTAATCCGTTAGCAACTGTTTTACGATATACATTTACCTTTTAAGAGGAGGAAT”, the “cleaved RNA product abundance” value under setting [1] amounted to 0.559.
Regarding “ACAGACGAAGGAGCCGCAAAGAAGTTATTAAGCGATGAATAAGCCCTCAATATAAATATCTCTCACTTATTTAAA”, the “cleaved RNA product abundance” value under setting [2] worked out at 0.108.
Turning to “ACAGACGAAGGAGCCGCAAAGTAGTTATTAAGGGATGAATAATCCCTAAATATAAATATCTCTCACTTATTTAAA”, under setting [2], the “cleaved RNA product abundance” value was determined as 0.55.
As for “CGACATGTCCCGCTTCTTTCATTATTCCGTCAGCAACTGTTTTGCTATATACATTTACCTTTTAAGAGGAGGAAT”, under setting [1], the “cleaved RNA product abundance” value stood at 0.502.
The same measure, in the same setting: the value for “CGACATGTCCCGCTTCTTTCATTAATCCATCAGCAACTGTTTTGCTATATACATTTACCTTTTAAGAGGAGGAAT” was 0.41.
“ACAGACGAAGGAGCCGCATAGAAGTTATTAAAGGATGAATAATCCCTCAATATAAATATCTCTCACTTATTTAAA”: the “cleaved RNA product abundance” value under setting [2] was 0.199.
On to “ACAGACGAAGGAGCCGCAAAGAAGTTATTAAGGGATTAATAATCCCTCCATATAAATATCTCTCACTTATTTAAA”, for which the “cleaved RNA product abundance” value under setting [2] is 0.197.
For “ACAGACGAAGGAGCCGCAAAGAAGTTAATAAGCGATGAATAATCCCTCAATATAAATATCTCTCACTTATTTAAA”, the “cleaved RNA product abundance” value is, setting by setting: under setting [3], 0.0808; under setting [2], 0.104.
“ACAGACGAAGGAGCCGCAAAGAAGTTATTAACGAATTAATAATCCCTCAATATAAATATCTCTCACTTATTTAAA”: the “cleaved RNA product abundance” value under setting [2] was 0.0842.
As to “CGACATGTCCCGCTTCTTTCATTAATCCTTTAAAAAGTGTTTTGCTATATACATTTACCTTTTAAGAGGAGGAAT”, the “cleaved RNA product abundance” value under setting [1] came to 0.182.
With “ACAGACGAAGGAGCCGCAAAGTAGTTATTAAGGAATGAATAATCCCTCAATATAAATATCTCTCACTTATTTAAA”, the “cleaved RNA product abundance” value under setting [2] was 0.148.
As for “CGACATGTCCCGCTTCTTTCATTAATCCGTTAGCAACTGTTTTCCTATATATATTTACCTTTTAAGAGGAGGAAT”, the “cleaved RNA product abundance” value under setting [1] came out at 0.505.
For the sequence “ACAGACGAAGGAGCCGCAAAGAAGCTATTAAGGGATGAATAATACCTCAATATAAATATCTCTCACTTATTTAAA”, the “cleaved RNA product abundance” value under setting [3] worked out at 0.0928.
On to “ACAGACGAAGGAGCCGCAAAGAAGTTATTAAAGGATGAATAATCCCTCCATATAAATATCTCTCACTTATTTAAA”, for which, under setting [2], the “cleaved RNA product abundance” value stood at 0.0862.
The same measure, in the same setting: next, “ACAGACGAAGGAGCCGCAAAGTAGTTATTAAGGTATGAATAATCCCTCAATATAAATATCTCTCACTTATTTAAA”: 0.0907; “ACAGACGAAGGAGCCGCAAAGACGTTATTAACGGATGAATAATCCCTCAATATAAATATCTCTCACTTATTTAAA”: 0.165.
Regarding “CGACATGTCCCGCTTCTTTCATTAATCCGTTAAAAACTGTTTTGCTATATACATTTACCTTTTAAGAGGAGGAAT”, the “cleaved RNA product abundance” value under setting [1] was determined as 0.292.
As for “ACAGACGAAGGAGCCGCAAAGTAGTTATTAAGGGATTAATAATCCCTCAATATAAATATCTCTCACTTATTTAAA”, the “cleaved RNA product abundance” value under setting [2] turned out to be 1.14.
“CGACATGTCCCGCTTCTTTCATTAATCCATTAGCAACTGTTATGCTATATACATTTACCTTTTAAGAGGAGGAAT”: the “cleaved RNA product abundance” value under setting [1] came out at 0.555.
Still for that read-out and setting: next, “CGACATGTCCCGCTTCTTTCATTAATCCGTTAGCAATTGTTTTGCTATAGACATTTACCTTTTAAGAGGAGGAAT”: 0.345.
For the sequence “ACAGACGAAGGAGCCGCAAAGAAGTAATTAAGGGATGAATAAACCCTCAATATAAATATCTCTCACTTATTTAAA”, the “cleaved RNA product abundance” value is, setting by setting: under setting [3], 0.166; under setting [2], 0.198.
“ACAGACGAAGGAGCCGCAAATAAGCTATTAAGGGATGAATAATCCCTCAATATAAATATCTCTCACTTATTTAAA”: under setting [2], the “cleaved RNA product abundance” value was 0.149.
For the sequence “CGACATGTCCCGCTTCTTTCATTACTCCGTTAGCAACTGTTTTGCTATATGCATTTACCTTTTAAGAGGAGGAAT”, the “cleaved RNA product abundance” value under setting [1] was found to be 0.234.
As to “ACAGACGAAGGAGCCGCAAAGAAGTTATTAAGGGATGAATAATTCGTCAATATAAATATCTCTCACTTATTTAAA”, under setting [3], the “cleaved RNA product abundance” value was determined as 0.0726.
As for “ACAGACGAAGGAGCCGCAAAGAAGTTATTAAGGCATGAATAATCCCTCAATATAAATTTCTCTCACTTATTTAAA”, the “cleaved RNA product abundance” value was determined as 0.0999 under setting [3] and 0.0847 under setting [2].
“CGACATGTCCCGCTTCTTTCATTAATCCGTTAGCAACTGTATTGCTATATAAATTTACCTTTTAAGAGGAGGAAT”: under setting [1], the “cleaved RNA product abundance” value came out at 0.849.
With “ACAGACGAAGGAGCCGCAAAGAAGTTATTAAGGGATGAATAATCCCTCAAAATAAATATCTCTCACTTATTTAAA”, the “cleaved RNA product abundance” value worked out at 0.302 under setting [3]; 0.393 under setting [2]; 0.369 (experiment (reporter, strain, medium): exp 6: tetM reporter, strain 168, cleavage site: cggR-gapA (positions -7 to +36 mutated)).
Take “CGACATGTCCCGCTTCTTTCATTAATCCGTTATCAACTGTTTGGCTATATACATTTACCTTTTAAGAGGAGGAAT”: the “cleaved RNA product abundance” value under setting [1] came to 0.231.
“ACAGACGAAGGAGCCGCAATGAAGTTAATAAGGGATGAATAATCCTTCAATATAAATATCTCTCACTTATTTAAA”: the “cleaved RNA product abundance” value under setting [2] came to 0.263.
Take “ACAGACGAAGGAGCCGCAAAGAAGTTATTAAGGGATGAAGAATCCTTCAATATAAATATCTCTCACTTATTTAAA”: the “cleaved RNA product abundance” value runs as follows: under setting [3], 0.265; under setting [2], 0.405.
For “ACAGACGAAGGAGCCGCAAAGAAGTTATCAAGGGATGAATAATGCCTCAATATAAATATCTCTCACTTATTTAAA”, the “cleaved RNA product abundance” value under setting [2] was determined as 0.19.
On to “ACAGACGAAGGAGCCGCAAAGAAGGTATTAAGGGATGAATAATCCCACAATATAAATATCTCTCACTTATTTAAA”, for which, under setting [3], the “cleaved RNA product abundance” value is 0.314.
As for “ACAGACGAAGGAGCCGCAAAGATGTTATTAAGGGATGAATAATCCCTCAATATACATATCTCTCACTTATTTAAA”, under setting [2], the “cleaved RNA product abundance” value stood at 0.483.
For “ACAGACGAAGGAGCCGCAAAGAAGTTATTAAGGGATGAATAATCCCTAAACATAAATATCTCTCACTTATTTAAA”, under setting [2], the “cleaved RNA product abundance” value is 0.323.
Regarding “ACAGACGAAGGAGCCGCAAAGAAGTTATTAAGGGTTGAATAATCCCTCAATATAAATCTCTCTCACTTATTTAAA”, the “cleaved RNA product abundance” value under setting [2] was determined as 0.173.
On the same count and under the same terms, the value for “ACAGACGAAGGAGCCGCAAAGAAGTTATTAAGGGAGGAATAATTCCTCAATATAAATATCTCTCACTTATTTAAA” was 0.0856.
In the case of “ACAGACGAAGGAGCCGCAAAGAAGTTATTAACGGATGAAAAATCCCTCAATATAAATATCTCTCACTTATTTAAA”, the “cleaved RNA product abundance” value under setting [3] came to 0.104 and the “cleaved RNA product abundance” value under setting [2] turned out to be 0.133.
Turning to “CGACATGTCCCGCTTCTTTCATTAATCCGTTAGCAACTGTTTCACTATATACATTTACCTTTTAAGAGGAGGAAT”, the “cleaved RNA product abundance” value under setting [1] was 0.694.
Take “ACAGACGAAGGAGCCGCAATGAAGTTATTAAGGGATGAATAATCCCACAATATAAATATCTCTCACTTATTTAAA”: the “cleaved RNA product abundance” value under setting [2] turned out to be 0.367.
For the sequence “ACAGACGAAGGAGCCGCAAAGAAGTTATTAAGGGATGAATAATCCTACAATATAAATATCTCTCACTTATTTAAA”, the “cleaved RNA product abundance” value under setting [2] is 0.295.
In the case of “CGACATGTCCCGCTTCTTTCATTAATCCGTTAGCAAGTGTTTTGCTATATACATTTACCTTTTAAGAGGAGGAAT”, the “cleaved RNA product abundance” value under setting [1] turned out to be 0.995.
Take “CGACATGTCCCGCTTCTTTCATTATTCCGTTAGCAACTTTTTTGCTATATACATTTACCGTTTAAGAGGAGGAAT”: under setting [1], the “cleaved RNA product abundance” value was 2.31.
“ACAGACGAAGGAGCCGCAAAGAAGTGATTAAGGGATGAATAATCCTTCAATATAAATATCTCTCACTTATTTAAA”: the “cleaved RNA product abundance” value stood at 0.337 under setting [3] and 0.342 under setting [2].
For “CGACATGTCCCGCTTCTTTCATTAATCCGTTACCAACTGTTTTGCTATATAAATTTACCTTTTAAGAGGAGGAAT”, the “cleaved RNA product abundance” value under setting [1] came to 0.163.
